Data as given in publication PMC13216289 (NPJ Vaccines, 2026).
Residue numbers refer to the chain shown, from its start.

B1: Ab34 (antibody, V domains shown)
VH: QVQLRESGPSLVKPSQTLSLTCTVSGFSLTDVHVGWVRQTPGKALEWVGVICNRGAIGYNPALESRLSITEDNSKSQVSLSLSSVTTADTATYYCASSCRTEGDVGGDCDSDHFFCAWGQGLLVTVSS
VL: SYELTQPTSVSVALGQTAKITCSGDLLDRQYAQWYQQKPGQGPVRVIYKDSERPSGISDRFSGSSSGKTATLTVSGAQTEDEADYYCHSADSSHYPVFGSGSTLTVL
B2: Ab17 (antibody, V domains shown)
VH: QVQLRESGPSSLKPSQTLSLTCAVSGFSLSTYAVGWVRQAPGKALEWVGDITSSGDTFYNPALKSRFSITKDNSKNQVSLSVGSVTPEDTATFYCTRLTCGDDCSTAWHNFDAWGQGLLVTVSS
VL: SYELTQPTSVSVALGQTAKITCSGDLLDVQYTQWYQQKPGQGPVRVIYKDSERPSGISDRFSGSSSGKTATLIISGAQTEDEADYYCQSTDSSQYGIFGRGTTLTVL
B3: Ab49 (antibody, V domains shown)
VH: QVQLRESGPSLVKPSQTLSLTCTVSGFSLTNYAVGWVRQAPGKAIQSLSIISTTGDTYYNPALKSRLSITKDNSKSQVSLSVSSVAPEDTATYYCVKFCGNADSAGHGWGCDYGDNENWGQGLLVTVSS
VL: B1 VL with R29E, A32T, V74I, H88Q, A90F, D91Y, H94T, Y95D, S102T

What was measured:
Conditions in all cases: both partners purified
[1] = molecular target: VP1 subunit of reduced O1M VLPs (Foot-and-mouth disease virus …, UniProt Q6PMW3); test: far-Western, overlay or dot blot
[2] = molecular target: VP1 C-terminal peptide, residues 196-210 of O/UKG/34/2001 (Foot-and-mouth disease virus …, UniProt Q80B19); test: ELISA
[3] = molecular target: VP1 C-terminal peptide, residues 199-213 of O/UKG/34/2001 (Foot-and-mouth disease virus …, UniProt Q80B19); test: ELISA

Binder	binding result [1]	binding result [2]	binding result [3]
B1	binds		
B2	binds	binds	binds
B3	binds	binds	binds
